In patent publication US8173397B2, “Folded recombinant catalytic fragments of multidomain serine proteases, preparation and uses thereof” (TargetEx Kft., priority 2002, dated 2012):

T1: C2 (Homo sapiens, UniProt P06681)
T1 construct: from tissue
T1 sequence (P06681 21-752): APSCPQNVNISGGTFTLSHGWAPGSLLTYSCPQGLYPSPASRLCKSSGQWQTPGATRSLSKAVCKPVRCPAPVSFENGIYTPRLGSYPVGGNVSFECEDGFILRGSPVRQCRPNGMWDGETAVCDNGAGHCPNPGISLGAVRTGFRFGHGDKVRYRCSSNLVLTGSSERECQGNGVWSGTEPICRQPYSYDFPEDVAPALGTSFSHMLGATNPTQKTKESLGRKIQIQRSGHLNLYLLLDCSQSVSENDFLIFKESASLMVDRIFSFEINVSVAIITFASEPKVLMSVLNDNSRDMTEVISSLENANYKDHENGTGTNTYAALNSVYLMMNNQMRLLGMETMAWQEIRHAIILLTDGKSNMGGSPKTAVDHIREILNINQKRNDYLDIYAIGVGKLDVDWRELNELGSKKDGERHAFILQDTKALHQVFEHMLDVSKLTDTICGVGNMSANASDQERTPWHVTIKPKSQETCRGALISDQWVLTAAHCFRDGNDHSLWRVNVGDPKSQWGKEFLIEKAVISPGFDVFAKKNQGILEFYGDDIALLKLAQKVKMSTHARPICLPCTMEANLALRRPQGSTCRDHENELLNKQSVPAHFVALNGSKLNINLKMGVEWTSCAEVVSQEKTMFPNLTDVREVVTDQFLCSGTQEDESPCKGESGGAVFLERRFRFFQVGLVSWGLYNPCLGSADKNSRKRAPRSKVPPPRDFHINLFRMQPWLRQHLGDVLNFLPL

T2: C1-inhibitor (Homo sapiens, UniProt P05155)
T2 construct: Purification of C1-inh and Alpha-2-Macroglobulin; from tissue
T2 sequence (P05155 23-500): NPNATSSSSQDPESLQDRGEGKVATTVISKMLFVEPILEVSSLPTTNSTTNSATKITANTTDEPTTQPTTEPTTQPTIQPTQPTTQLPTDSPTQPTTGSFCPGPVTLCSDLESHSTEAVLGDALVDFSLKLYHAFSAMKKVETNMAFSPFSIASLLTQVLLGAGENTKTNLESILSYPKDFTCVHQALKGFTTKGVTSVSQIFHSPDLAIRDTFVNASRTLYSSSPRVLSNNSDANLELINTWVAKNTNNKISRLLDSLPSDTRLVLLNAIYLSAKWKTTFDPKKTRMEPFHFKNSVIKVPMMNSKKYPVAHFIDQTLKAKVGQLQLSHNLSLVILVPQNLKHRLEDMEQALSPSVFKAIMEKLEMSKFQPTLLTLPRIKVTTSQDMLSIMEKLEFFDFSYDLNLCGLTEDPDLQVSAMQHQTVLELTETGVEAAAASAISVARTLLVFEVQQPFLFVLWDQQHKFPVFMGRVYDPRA

B1: MASP-2 CCP-SP: E. coli-expressed, refolded human MASP-2 CCP2-SP fragment, Ala-Ser-Met-Thr tag followed by Ile363, ending Phe686 (protein)
chain 1: ASMTIVDCGPPDDLPSGRVEYITGPGVTTYKAVIQYSCEETFYTMKVNDGKYVCEADGFWTSSKGEKSLPVCEPVCGLSARTTGGR
chain 2: IYGGQKAKPGDFPWQVLILGGTTAAGALLYDNWVLTAAHAVYEQKHDASALDIRMGTLKRLSPHYTQAWSEAVFIHEGYTHDAGFDNDIALIKLNNKVVINSNITPICLPRKEAESFMRTDDIGTASGWGLTQRGFLARNLMYVDIPIVDHQKCTAAYEKPPYPRGSVTANMLCAGLESGGKDSCRGDSGGALVFLDSETERWFVGGIVSWGSMNCGEAGQYGVYTKVINYIPWIENIISDF
B2: MASP-2γB: E. coli-expressed, refolded human MASP-2 CCP1-CCP2-SP fragment, Thr287 to Phe686, Ala-Ser-Met tag; purified form starts with Ile291 (protein)
chain 1: IHYTSTAQPCPYPMAPPNGHVSPVQAKYILKDSFSIFCETGYELLQGHLPLKSFTAVCQKDGSWDRPMPACSIVDCGPPDDLPSGRVEYITGPGVTTYKAVIQYSCEETFYTMKVNDGKYVCEADGFWTSSKGEKSLPVCEPVCGLSARTTGGR
chain 2: B1 chain 2
B3: MASP-2 SP: E. coli-expressed, refolded human MASP-2 serine protease domain, Ala-Ser-Met-Thr tag followed by Pro432, ending Phe686 (protein)
chain 1: ASMTPVCGLSARTTGGR
chain 2: B1 chain 2
B4: CCP1-CCP2-SP: E. coli-expressed, refolded human C1r CCP1-CCP2-SP fragment, amino acids 309-705, N-terminal Ser-Thr-Gln-Ala (protein)
chain 1: STQACPQPKTLDEFTIIQNLQPQYQFRDYFIATCKQGYQLIEGNQVLHSFTAVCQDDGTWHRAMPRCKIKDCGQPRNLPNGDFRYTTTMGVNTYKARIQYYCHEPYYKMQTRAGSRESEQGVYTCTAQGIWKNEQKGEKIPRCLPVCGKPVNPVEQRQR
chain 2: IIGGQKAKMGNFPWQVFTNIHGRGGGALLGDRWILTAAHTLYPKEHEAQSNASLDVFLGHTNVEELMKLGNHPIRRVSVHPDYRQDESYNFEGDIALLELENSVTLGPNLLPICLPDNDTFYDLGLMGYVSGFGVMEEKIAHDLRFVRLPVANPQACENWLRGKNRMDVFSQNMFCAGHPSLKQDACQGDSGGVFAVRDPNTDRWVATGIVSWGIGCSRGYGFYTKVLNYVDWIKKEMEEED
B5: CCP2-SP: E. coli-expressed, refolded human C1r CCP2-SP fragment, amino acids 376-705, N-terminal Ser-Thr-Gln-Ala (protein)
chain 1: STQACGQPRNLPNGDFRYTTTMGVNTYKARIQYYCHEPYYKMQTRAGSRESEQGVYTCTAQGIWKNEQKGEKIPRCLPVCGKPVNPVEQRQR
chain 2: B4 chain 2

Assays:
[1] = test system: C4; assay: C4 cleavage by MASP fragments; type: biochemical, human; settings: for C4 kcat: 37° C., pH 7.4, averages of 2 to 4 experiments, standard errors
Procedure: (§1) C2, C3, C3(NH3), C4 cleavage—Serial dilutions of MASP-1 and MASP-2 fragments ranging between concentrations of 1 μM and 10 pM were incubated at 37° C. in 20 mM HEPES, 140 mM NaCl, pH 7.4 with C2, C3, C3(NH3) or C4 at typical concentrations of 0.5-1 μM. The cleavage was followed by SDS-PAGE under reducing conditions. Desirable concentrations of the MASP fragments for further detailed kinetic analysis were chosen to be where half of the protein substrates were hydrolyzed during the first 20 minutes of incubation. The protein substrates C2, C3, C3(NH3) or C4 were then incubated with the selected concentrations of the MASP fragments at 37° C. in 20 mM HEPES, 140 mM NaCl, pH 7.4. Typically 11-13 samples were taken at varying time periods but always within 50 minutes from the beginning of the reaction. Cleavages rates were quantified by measuring the diminution of the cleaved chain visualized by Coomassie stained SDS-PAGs using a GEL DOC 1000 instrument and Molecular Analyst Software for densitometric calculations (Bio-Rad, Hercules, Calif., USA). The reactions were assumed to be of the Michaelis-Menten type. In the case of C3 and C3(NH3) cleavage a further reasonable assumption of KM>>[substrate] was made. The constants KM, kcat and KM/kcat were estimated by unbiased non-linear regression methods regressing the data on the following equations: t=([S0]−[S]+KMln([S0]/[S]))/(kcat[E0]) or in the case of C3 and C3(NH3) cleavage on [S]=[S0]exp(−t[E0]kcat/KM).

[2] = molecular target: T1, C2; assay: C2 cleavage by MASP fragments; type: biochemical; settings: 37° C., pH 7.4; averages of 2 to 4 experiments, standard errors
Procedure: as §1

[3] = molecular target: T2, C1-inhibitor; assay: Rate of SDS stable complex formation of 125I-labelled MASP fragments with C1-inhibitor; type: biochemical
Procedure: To assess the rate of SDS stable complex formation between the MASP-1 and MASP-2 CCP1-CCP2-SP fragments and C1-inhibitor, the ^125I-labelled MASP fragments at concentrations ranging between 30-100 nM were incubated with 100-350 nM C1-inhibitor at 37° C. in 20 mM HEPES, 140 mM NaCl, pH 7.4 for 40 minutes. Typically 11-13 samples were taken at varying time periods. The reactions were stopped by reducing sample buffer containing 0.125 M Tris, 4.8% SDS, 8 M urea 20% glycerol, 720 mM mercaptoethanol, 0.02% bromophenol blue, pH6.8. The samples were further incubated at 37° C. for 30 minutes and run on reducing SDS-PAGE. Cleavages rates were visualized by means of autoradiography and the diminution of the reacted MASP chain was quantified using a GEL DOC 1000 instrument and Molecular Analyst Software for densitometric calculations (Bio-Rad, Hercules, Calif., USA). The kinetic constants were calculated assuming irreversible inhibition proceeded by reversible enzyme-inhibitor complex formation. Using steady-state approximation and neglecting the starting enzyme concentration compared to the starting inhibitor concentration ([I0]>>[E0]) the data was regressed on the following equation using non-linear regression methods: [E]=[E0]exp(−kobst); kobs=k2[I0]/(Ki+[I0]), where kobs is the observed pseudo-first order rate of reaction, k2 is the rate of irreversible enzyme-inhibitor complex formation and Ki is the inhibitory constant.

[4] = molecular target: T3, C3(NH3) (Homo sapiens, UniProt P01024); assay: Cleavage of dead C3, C3(NH3), by MASP fragments, SDS-PAGE densitometry; type: biochemical; settings: control experiment
T3 construct: was isolated from fresh human serum; from tissue; host or cells: fresh human serum, then amidolysis with ammonium hydrogen carbonate
Procedure: Amidolysis of C3 The intact thiol ester bond in ‘live’ C3 was cleaved using ammonium salt as the nucleophile to obtain ‘dead’ C3(NH3), according to Soames and Sim (1997) with modifications. C3 was incubated with a final concentration of 0.2 M ammonium hydrogen carbonate for 90 min at 37° C., making sure that the final pH of the reaction was above 8.0. At the end of the incubation, the reaction was collected with a brief centrifugation (5 min, 8000 g, RT) and dialyzed against 20 mM HEPES, 140 mM NaCl, pH 7.4.
C2, C3, C3(NH3), C4 cleavage—Serial dilutions of MASP-1 and MASP-2 fragments ranging between concentrations of 1 μM and 10 pM were incubated at 37° C. in 20 mM HEPES, 140 mM NaCl, pH 7.4 with C2, C3, C3(NH3) or C4 at typical concentrations of 0.5-1 μM. The cleavage was followed by SDS-PAGE under reducing conditions. Desirable concentrations of the MASP fragments for further detailed kinetic analysis were chosen to be where half of the protein substrates were hydrolyzed during the first 20 minutes of incubation. […] Cleavages rates were quantified by measuring the diminution of the cleaved chain visualized by Coomassie stained SDS-PAGs using a GEL DOC 1000 instrument and Molecular Analyst Software for densitometric calculations (Bio-Rad, Hercules, Calif., USA). […]

[5] = Differential scanning calorimetry of C1r fragments; type: physicochemical; settings: 20 mM Tris pH 8.3, 145 mM NaCl, 0.1 mg/ml, 1° C./min
Procedure: Calorimetric measurements were performed on a VP-DSC (Microcal Inc, Northampton, Mass.) differential scanning calorimeter. Denaturation curves were recorded between 10 and 80° C. at a pressure of 2.5 atm, using a scanning rate of 1° C./min. The protein concentration was set to 0.1 mg/ml. Samples were dialyzed against 20 mM Tris pH 8.3 145 mM NaCl, and the dialysis buffer was used as a reference. Heat capacities were calculated as outlined by Privalov (16).

[6] = molecular target: T4, live C3 (Homo sapiens, UniProt P01024); assay: Cleavage of live C3 by MASP fragments, SDS-PAGE densitometry; type: biochemical; settings: control experiment
T4 construct: was isolated from fresh human serum; from tissue; host or cells: fresh human serum
Procedure: as §1, with “The constants KM, kcat and KM/kcat were estimated by unbiased non-linear regression methods regressing the data on the following equations: t=([S0]−[S]+KMln([S0]/[S]))/(kcat[E0]) or in the case of C3 and C3(NH3) cleavage on [S]=[S0]exp(−t[E0]kcat/KM).” left out

T3 sequence (P01024 672-1663 limits assumed): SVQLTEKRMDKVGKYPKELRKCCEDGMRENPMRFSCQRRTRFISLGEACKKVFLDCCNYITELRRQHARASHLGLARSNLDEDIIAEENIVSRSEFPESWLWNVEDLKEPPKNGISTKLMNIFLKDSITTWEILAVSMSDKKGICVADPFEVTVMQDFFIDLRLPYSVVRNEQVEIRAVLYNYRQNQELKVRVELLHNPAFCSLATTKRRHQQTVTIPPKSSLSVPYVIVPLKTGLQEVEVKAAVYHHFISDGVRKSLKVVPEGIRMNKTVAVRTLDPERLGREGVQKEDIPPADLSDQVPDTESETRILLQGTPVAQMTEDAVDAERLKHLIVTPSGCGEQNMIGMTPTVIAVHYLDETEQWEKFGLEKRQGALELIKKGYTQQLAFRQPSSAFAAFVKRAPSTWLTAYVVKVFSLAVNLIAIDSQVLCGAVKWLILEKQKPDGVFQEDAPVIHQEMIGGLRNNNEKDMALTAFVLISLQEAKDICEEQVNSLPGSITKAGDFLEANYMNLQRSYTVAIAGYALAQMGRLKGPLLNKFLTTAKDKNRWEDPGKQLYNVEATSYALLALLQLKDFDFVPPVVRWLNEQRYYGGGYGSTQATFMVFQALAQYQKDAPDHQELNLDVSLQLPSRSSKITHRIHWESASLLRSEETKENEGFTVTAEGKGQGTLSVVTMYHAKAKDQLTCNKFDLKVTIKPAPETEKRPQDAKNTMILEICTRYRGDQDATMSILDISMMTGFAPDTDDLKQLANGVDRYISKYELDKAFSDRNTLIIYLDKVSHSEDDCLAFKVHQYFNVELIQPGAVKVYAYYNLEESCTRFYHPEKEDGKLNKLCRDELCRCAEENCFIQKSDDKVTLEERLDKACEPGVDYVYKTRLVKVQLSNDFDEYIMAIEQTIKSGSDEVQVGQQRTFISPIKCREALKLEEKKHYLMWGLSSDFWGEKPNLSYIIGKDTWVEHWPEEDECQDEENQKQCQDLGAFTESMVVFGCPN
T3 sequence (P01024 23-667 partner limits assumed): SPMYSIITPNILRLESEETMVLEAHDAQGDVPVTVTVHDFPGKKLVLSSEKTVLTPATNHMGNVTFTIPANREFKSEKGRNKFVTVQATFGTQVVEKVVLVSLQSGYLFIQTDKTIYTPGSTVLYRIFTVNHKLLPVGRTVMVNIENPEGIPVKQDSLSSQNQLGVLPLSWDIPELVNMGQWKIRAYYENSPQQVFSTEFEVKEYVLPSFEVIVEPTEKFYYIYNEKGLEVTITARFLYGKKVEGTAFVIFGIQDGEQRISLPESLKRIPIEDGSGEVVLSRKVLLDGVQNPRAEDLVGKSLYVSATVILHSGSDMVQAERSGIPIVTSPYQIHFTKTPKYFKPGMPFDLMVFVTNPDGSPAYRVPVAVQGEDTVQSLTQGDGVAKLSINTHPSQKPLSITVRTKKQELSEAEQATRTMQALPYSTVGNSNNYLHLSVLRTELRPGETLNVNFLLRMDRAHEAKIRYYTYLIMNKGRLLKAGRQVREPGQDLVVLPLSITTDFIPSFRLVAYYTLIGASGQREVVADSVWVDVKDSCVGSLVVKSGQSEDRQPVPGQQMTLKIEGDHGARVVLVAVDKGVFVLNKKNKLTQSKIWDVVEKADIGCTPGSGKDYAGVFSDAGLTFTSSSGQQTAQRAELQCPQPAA
T4 sequence (P01024 672-1663 limits assumed): as the sequence (P01024 672-1663 limits assumed) above
T4 sequence (P01024 23-667 partner limits assumed): as the sequence (P01024 23-667 partner limits assumed) above

Molecule	C4 kcat [1] [s⁻¹]	C2 kcat [2] [s⁻¹]	DSC melting / unfolding transition temperature [5] [°C]	other results
B1	2.0 ± 1.0	3.0 ± 2.2	–	increase in the kcat/KM value of C4 cleavage by presence of the CCP2 domain ([1]; relative to MASP-2 SP domain alone): 44 fold
B2	0.9 ± 0.4	1.9 ± 0.8	–	Ki values for the C1-inhibitor reaction, in words [3]: in the nanomolar range; k2, rate of irreversible enzyme-inhibitor complex formation with C1-inh ([3]; 37° C., pH 7.4): 0.008 s⁻¹; Ki ([3]; 37° C., pH 7.4, read-out: Ki, reaction with C1-inh): 8.8 nM; kobs, pseudo-first order rate of reaction with C1-inh ([3]; [C1-inh] = 350 nM, 37° C., pH 7.4): 0.0078 s⁻¹
B3	0.20 ± 0.06	3.9 ± 3.0	–	–
B4	–	–	57.5	cleavage of 'dead' C3, in words [4]: no cleavages; cleavage of 'live' C3, in words [6]: no cleavages
B5	–	–	55.4	–
